Ratio to parent data for four variants are collected here from article PMC5674072 (2017).

The chains are these.
B1: 3x Flag Matrin 3 wild-type (human) [human] / Aly (AlyRef) of NSC-34 cells [mouse (endogenous in NSC-34)] (parent complex)
chain 1: MSKSFQQSSLSRDSQGHGRDLSAAGIGLLAAATQSLSMPASLGRMNQGTARLASLMNLGMSSSLNQQGAHSALSSASTSSHNLQSIFNIGSRGPLPLSSQHRGDADQASNILASFGLSARDLDELSRYPEDKITPENLPQILLQLKRRRTEEGPTLSYGRDGRSATREPPYRVPRDDWEEKRHFRRDSFDDRGPSLNPVLDYDHGSRSQESGYYDRMDYEDDRLRDGERCRDDSFFGETSHNYHKFDSEYERMGRGPGPLQERSLFEKKRGAPPSSNIEDFHGLLPKGYPHLCSICDLPVHSNKEWSQHINGASHSRRCQLLLEIYPEWNPDNDTGHTMGDPFMLQQSTNPAPGILGPPPPSFHLGGPAVGPRGNLGAGNGNLQGPRHMQKGRVETSRVVHIMDFQRGKNLRYQLLQLVEPFGVISNHLILNKINEAFIEMATTEDAQAAVDYYTTTPALVFGKPVRVHLSQKYKRIKKPEGKPDQKFDQKQELGRVIHLSNLPHSGYSDSAVLKLAEPYGKIKNYILMRMKSQAFIEMETREDAMAMVDHCLKKALWFQGRCVKVDLSEKYKKLVLRIPNRGIDLLKKDKSRKRSYSPDGKESPSDKKSKTDGSQKTESSTEGKEQEEKSGEDGEKDTKDDQTEQEPNMLLESEDELLVDEEEAAALLESGSSVGDETDLANLGDVASDGKKEPSDKAVKKDGSASAAAKKKLKKVDKIEELDQENEAALENGIKNEENTEPGAESSENADDPNKDTSENADGQSDENKDDYTIPDEYRIGPYQPNVPVGIDYVIPKTGFYCKLCSLFYTNEEVAKNTHCSSLPHYQKLKKFLNKLAEERRQKKET
chain 2: not shown

Variants of B1 are the subject of one test. Kind of test: co-immunoprecipitation (Aly IP) followed by western blot, quantified; NSC-34 stable cell lines; five replicates; WT vs 85: p = 0.6561; read off a plot.
For chain 1 S85C, the ratio to parent was roughly 1.4.

A further test covers variants of B1. Description: co-immunoprecipitation (Aly IP) followed by western blot, quantified; NSC-34 stable cell lines; five replicates; WT vs 622 p = 0.9611; read off a plot.
Regarding chain 1 T622A, the ratio to parent was roughly 1.2.

Variants of B1 are the subject of a further test. Description: co-immunoprecipitation (Aly IP) followed by western blot, quantified; NSC-34 stable cell lines; five replicates; WT vs 115: p = 0.9670; read off a plot. A general note: In western blotting, separated proteins are transferred to a membrane and probed.
With chain 1 F115C, the ratio to parent is roughly 1.2.

In the next test the parent is B1. Description: co-immunoprecipitation (Aly IP) followed by western blot, quantified; NSC-34 stable cell lines; five replicates; WT vs 154 p = 0.2250; read off a plot.
Regarding chain 1 P154S, the ratio to parent was roughly 1.6.
